Measured values: the supplement of paper PMC7877785
± gives the uncertainty stated by the source.

Test: self-splicing fitness, log relative to wild type (ln ratio); higher = more splicing; Tetrahymena group I intron in knt gene, E. coli kanamycin selection, DiMSum; sequences stand for … in CUCUCU…GGAGGGAAAAGUUAUCAGGCAUGCACCUGGUAGCUAGUCUUUAAACCAAUAGAUUGCAUCGGUUUAAAAGGCAAGACCGUCAAAUUGCGGGAAAGGGGUCAACAGCCGUUCAGUACCAAGUCUCAGGGGAAACUUUGAGAUGGCCUUGCAAAGGGUAUGGUAAUAAGCUGACGGACAUGGUCCUAACCACGCAGCCAAGUCCUAAGUCAACAGAUCUUCUGUUGAUAUGGAUGCAGUUCACAGACUAAAUGUCGGUCGGGGAAGAUGUAUUCUUCUCAUAAGAUAUAGUCGGACCUCUCCUUAAUGGGAGCUAGCGGAUGAAGUGAUGCAACACUGGAGCCGCUGGGAACUAAUUUGUAUGCGAAAGUAUAUUGAUUAGUUUUGGAGUACUCGUGGUCG
Procedure, shortened: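 DiMSum derived fitness as the error-weighted combination of fold changes across replicates, kanamycin versus no kanamycin, normalised to wild type. E. coli BL21(DE3) held the library, which randomised all eight P1ex-region intron nucleotides within the knt kanamycin-resistance gene on pET-22b(+). Six replicate transformations grew overnight at 37°C or 30°C on LB agar with or without 25 μg/mL kanamycin, also containing 100 μg/mL carbenicillin, 50 μM IPTG and 0.2% rhamnose, and pooled colonies were amplicon-sequenced on an Illumina HiSeq 2500.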

Sequence | self-splicing fitness (ln) (30 °C) | self-splicing fitness (ln) (37 °C)
UGGUAGCAAUAUUACGCUGA | -1.07 ± 0.15 | -0.679 ± 0.11
UGGUAGCAAUAUUACGGAAG | -2.16 ± 0.15 | -1.27 ± 0.18
UGGUAGCAAUAUUACGGGCU | -2.27 ± 0.14 | -0.926 ± 0.11
UGGUAGCAAUAUUACGGGGC | – | -2.37 ± 0.38
UGGUAGCAAUAUUACGUCCU | 0.31 ± 0.2 | 0.713 ± 0.3
UGGUAGCAAUAUUACGUGUC | -2.13 ± 0.46 | –
UGUAAGCAAUAUUACGAAAC | -4.22 ± 0.3 | -2.95 ± 0.25
UGUAAGCAAUAUUACGAAGG | -2.14 ± 0.15 | -1.92 ± 0.25
UGUAAGCAAUAUUACGACAG | -1.29 ± 0.11 | -0.146 ± 0.13
UGUAAGCAAUAUUACGACGU | -1.29 ± 0.11 | -0.138 ± 0.13
UGUAAGCAAUAUUACGAGUA | -1.48 ± 0.11 | -0.65 ± 0.12
UGUAAGCAAUAUUACGAGUG | -2.02 ± 0.13 | -0.484 ± 0.14
UGUAAGCAAUAUUACGAUGG | -2.9 ± 0.13 | -0.756 ± 0.12
UGUAAGCAAUAUUACGCAAA | -2.11 ± 0.16 | -0.927 ± 0.13
UGUAAGCAAUAUUACGCGGC | – | -1.13 ± 0.27
UGUAAGCAAUAUUACGCGGU | -3.22 ± 0.21 | -2.15 ± 0.29
UGUAAGCAAUAUUACGGACC | -1.18 ± 0.18 | -0.408 ± 0.18
UGUAAGCAAUAUUACGGGUA | -1.61 ± 0.22 | -0.187 ± 0.16
UGUAAGCAAUAUUACGGUCC | -2.16 ± 0.14 | -1.29 ± 0.14
UGUAAGCAAUAUUACGGUUU | -2.96 ± 0.16 | -1.68 ± 0.18
UGUAAGCAAUAUUACGUACG | -0.346 ± 0.057 | -0.333 ± 0.067

Sequence | self-splicing fitness (ln) (30 °C) | self-splicing fitness (ln) (37 °C)
UGUAAGCAAUAUUACGUAGU | -3.01 ± 0.21 | -0.923 ± 0.18
UGUAAGCAAUAUUACGUAUG | -1.11 ± 0.093 | -0.727 ± 0.12
UGUCAGCAAUAUUACGAAAC | – | -0.978 ± 0.25
UGUCAGCAAUAUUACGAAGA | -0.706 ± 0.11 | -0.132 ± 0.11
UGUCAGCAAUAUUACGACAA | -1.02 ± 0.097 | -0.118 ± 0.1
UGUCAGCAAUAUUACGACCG | -0.0146 ± 0.18 | 0.122 ± 0.25
UGUCAGCAAUAUUACGAGGA | -2.46 ± 0.22 | -0.886 ± 0.15
UGUCAGCAAUAUUACGAGGG | -3.72 ± 0.2 | -1.37 ± 0.14
UGUCAGCAAUAUUACGAGUG | -1.07 ± 0.085 | -0.261 ± 0.094
UGUCAGCAAUAUUACGAUUC | -1.84 ± 0.11 | -0.335 ± 0.13
UGUCAGCAAUAUUACGCAAC | -2.59 ± 0.33 | -1.26 ± 0.28
UGUCAGCAAUAUUACGCACG | -1.06 ± 0.12 | -0.829 ± 0.13
UGUCAGCAAUAUUACGCCAA | -0.858 ± 0.13 | -0.585 ± 0.13
UGUCAGCAAUAUUACGGAAA | -1.11 ± 0.088 | -0.145 ± 0.086
UGUCAGCAAUAUUACGGAAG | -2.37 ± 0.14 | -0.569 ± 0.15
UGUCAGCAAUAUUACGGCUU | -0.428 ± 0.12 | -0.319 ± 0.17
UGUCAGCAAUAUUACGGGGU | -2.91 ± 0.18 | -2.49 ± 0.23
UGUCAGCAAUAUUACGGUGC | -3.51 ± 0.43 | -2.74 ± 0.38
UGUCAGCAAUAUUACGUAGA | -0.492 ± 0.057 | -0.604 ± 0.081
UGUCAGCAAUAUUACGUCGC | -1.14 ± 0.25 | –
UGUCAGCAAUAUUACGUGUC | – | -2.37 ± 0.21

Sequence | self-splicing fitness (ln) (30 °C) | self-splicing fitness (ln) (37 °C)
UGUCAGCAAUAUUACGUUCA | -0.292 ± 0.1 | -0.052 ± 0.14
UGUGAGCAAUAUUACGAAAA | -1.47 ± 0.35 | -1.31 ± 0.46
UGUGAGCAAUAUUACGAACG | -0.83 ± 0.075 | 0.261 ± 0.086
UGUGAGCAAUAUUACGAAGA | -2.48 ± 0.37 | –
UGUGAGCAAUAUUACGAAGC | -2.81 ± 0.34 | -2.08 ± 0.47
UGUGAGCAAUAUUACGAUAU | -2.31 ± 0.22 | -1.66 ± 0.37
UGUGAGCAAUAUUACGAUGA | -2.75 ± 0.17 | -2.21 ± 0.17
UGUGAGCAAUAUUACGAUUA | -1.17 ± 0.22 | -1.53 ± 0.2
UGUGAGCAAUAUUACGCAGU | – | -1.74 ± 0.26
UGUGAGCAAUAUUACGCCGU | – | -1.71 ± 0.47
UGUGAGCAAUAUUACGCGCA | -1.34 ± 0.44 | -0.203 ± 0.48
UGUGAGCAAUAUUACGCGGU | -3.67 ± 0.37 | -0.807 ± 0.33
UGUGAGCAAUAUUACGCUUC | -2.97 ± 0.39 | –
UGUGAGCAAUAUUACGGACG | -0.792 ± 0.12 | -0.0879 ± 0.18
UGUGAGCAAUAUUACGGUAU | -3.87 ± 0.34 | –
UGUGAGCAAUAUUACGUAAC | -3.16 ± 0.28 | -2.25 ± 0.38
UGUGAGCAAUAUUACGUAUA | -3.5 ± 0.4 | -2.03 ± 0.21
UGUGAGCAAUAUUACGUCCG | -0.363 ± 0.12 | -0.0626 ± 0.17
UGUUAGCAAUAUUACGAAUA | -1.32 ± 0.14 | -0.0107 ± 0.14
UGUUAGCAAUAUUACGACCA | 0.586 ± 0.18 | -0.351 ± 0.24
UGUUAGCAAUAUUACGAGAC | -3.17 ± 0.37 | –

Sequence | self-splicing fitness (ln) (30 °C) | self-splicing fitness (ln) (37 °C)
UGUUAGCAAUAUUACGAGAU | – | -2.58 ± 0.44
UGUUAGCAAUAUUACGAGCA | -0.725 ± 0.12 | -0.136 ± 0.17
UGUUAGCAAUAUUACGAGGU | -3.93 ± 0.28 | -2.8 ± 0.33
UGUUAGCAAUAUUACGCAAC | -2.82 ± 0.44 | –
UGUUAGCAAUAUUACGCAGC | – | -2.47 ± 0.38
UGUUAGCAAUAUUACGCCCA | 0.342 ± 0.28 | -0.34 ± 0.41
UGUUAGCAAUAUUACGCCUC | – | -0.642 ± 0.41
UGUUAGCAAUAUUACGCGAA | -0.983 ± 0.12 | -0.191 ± 0.1
UGUUAGCAAUAUUACGGCAG | 0.45 ± 0.1 | -1.03 ± 0.12
UGUUAGCAAUAUUACGGCUA | -1.01 ± 0.19 | 0.14 ± 0.19
UGUUAGCAAUAUUACGGCUG | 0.0825 ± 0.08 | 0.196 ± 0.12
UGUUAGCAAUAUUACGGGAC | – | -2.99 ± 0.48
UGUUAGCAAUAUUACGGUAC | – | -2.68 ± 0.48
UGUUAGCAAUAUUACGUCGU | -3.5 ± 0.33 | -2.69 ± 0.23
UGUUAGCAAUAUUACGUUAC | -1.97 ± 0.43 | –
UUAAAGCAAUAUUACGAAUU | -1.97 ± 0.11 | -2.46 ± 0.21
UUAAAGCAAUAUUACGAGUU | -2.82 ± 0.18 | -1.38 ± 0.16
UUAAAGCAAUAUUACGAUCG | 0.538 ± 0.098 | 0.338 ± 0.13
UUAAAGCAAUAUUACGAUGC | -2.82 ± 0.11 | -2.2 ± 0.083
